Laboratory results published in patent US20030219813A1 (Takeda / Millennium, published 2003).

T1: SCUBE1.Myc (human SCUBE1 tagged with Myc at the C-terminus, endogenous signal peptide) (human, UniProt Q8IWY4 23-988)
T1 construct: Expressed by transient transfection in HEK-293 / 293T cells; also called Myc-tagged human SCUBE1
T1 chain: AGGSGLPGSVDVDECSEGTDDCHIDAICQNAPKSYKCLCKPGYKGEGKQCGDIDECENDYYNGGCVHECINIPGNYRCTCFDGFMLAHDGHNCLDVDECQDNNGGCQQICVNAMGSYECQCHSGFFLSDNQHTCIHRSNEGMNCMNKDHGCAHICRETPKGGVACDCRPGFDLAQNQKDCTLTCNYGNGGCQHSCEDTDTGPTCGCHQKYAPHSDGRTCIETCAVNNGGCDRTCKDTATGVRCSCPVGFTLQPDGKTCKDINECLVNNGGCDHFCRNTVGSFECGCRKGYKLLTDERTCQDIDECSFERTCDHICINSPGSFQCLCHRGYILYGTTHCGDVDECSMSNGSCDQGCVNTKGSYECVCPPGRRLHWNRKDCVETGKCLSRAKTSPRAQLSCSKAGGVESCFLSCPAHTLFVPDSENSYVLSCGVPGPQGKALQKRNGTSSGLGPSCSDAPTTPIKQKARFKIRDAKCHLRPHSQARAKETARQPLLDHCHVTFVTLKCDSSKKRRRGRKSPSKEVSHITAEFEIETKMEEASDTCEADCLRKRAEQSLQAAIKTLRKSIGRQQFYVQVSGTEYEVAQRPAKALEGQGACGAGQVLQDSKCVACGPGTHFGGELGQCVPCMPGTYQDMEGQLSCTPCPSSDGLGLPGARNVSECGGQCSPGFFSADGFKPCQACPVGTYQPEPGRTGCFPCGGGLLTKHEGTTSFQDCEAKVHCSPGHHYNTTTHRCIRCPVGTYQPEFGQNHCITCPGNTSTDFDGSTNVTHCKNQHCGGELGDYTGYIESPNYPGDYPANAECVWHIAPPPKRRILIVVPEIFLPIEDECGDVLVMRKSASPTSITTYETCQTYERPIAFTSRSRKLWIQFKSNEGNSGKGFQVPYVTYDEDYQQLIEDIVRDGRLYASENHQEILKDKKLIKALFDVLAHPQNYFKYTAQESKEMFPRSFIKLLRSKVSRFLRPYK

B1: human SCUBE1 (SEQ ID NO:2) (other)
chain: T1 chain
modifications: glycosylated (N-linked, tunicamycin-sensitive)
notes: protein of 988 amino acids; also called Signal peptide-CUB-EGF-like domain-containing protein 1; recombinantly expressed SCUBE1
B2: human SCUBE2 (SEQ ID NO:4) (other)
chain: RAAGPQEDVDECAQGLDDCHADALCQNTPTSYKCSCKPGYQGEGRQCEDIDECGNELNGGCVHDCLNIPGNYRCTCFDGFMLAHDGHNCLDVDECLENNGGCQHTCVNVMGSYECCCKEGFFLSDNQHTCIHRSEEGLSCMNKDHGCSHICKEAPRGSVACECRPGFELAKNQRDCILTCNHGNGGCQHSCDDTADGPECSCHPQYKMHTDGRSCLEREDTVLEVTESNTTSVVDGDKRVKRRLLMETCAVNNGGCDRTCKDTSTGVHCSCPVGFTLQLDGKTCKDIDECQTRNGGCDHFCKNIVGSFDCGCKKGFKLLTDEKSCQDVDECSLDRTCDHSCINHPGTFACACNRGYTLYGFTHCGDVTTIRTSVTFKLNEGKCSLKNAELFPEGLRPALPEKHSSVKESFRYVNLTCSSGKQVPGAPGRPSTPKEMFITVEFELETNQKEVTASCDLSCIVKRTEKRLRKAIRTLRKAVHREQFHLQLSGMNLDVAKKPPRTSERQAESCGVGQGHAENQCVSCRAGTYYDGARERCILCPNGTFQNEEGQMTCEPCPRPGNSGALKTPEAWNMSECGGLCQPGEYSADGFAPCQLCALGTFQPEAGRTSCFPCGGGLATKHQGATSFQDCETRVQCSPGHFYNTTTHRCIRCPVGTYQPEFGKNNCVSCPGNTTTDFDGSTNITQCKNRRCGGELGDFTGYIESPNYPGNYPANTECTWTINPPPKRRILIVVPEIFLPIEDDCGDYLVMRKTSSSNSVTTYETCQTYERPIAFTSRSKKLWIQFKSNEGNSARGFQVPYVTYDEDYQELIEDIVRDGRLYASENHQEILKDKKLIKALFDVLAHPQNYFKYTAQESREMFPRSFIRLLRSKVSRFLRPYK
notes: protein of 919 amino acids; also called recombinantly expressed SCUBE2
B3: Flag.SCUBE1-D2 (Flag-tagged deletion construct 2 of human SCUBE1, amino acids 26-411 of SEQ ID NO:2; spacer, 10th EGF-like domain and CUB domain deleted) (other, not shown: small tags and cut ends)
chain: SGLPGSVDVDECSEGTDDCHIDAICQNAPKSYKCLCKPGYKGEGKQCGDIDECENDYYNGGCVHECINIPGNYRCTCFDGFMLAHDGHNCLDVDECQDNNGGCQQICVNAMGSYECQCHSGFFLSDNQHTCIHRSNEGMNCMNKDHGCAHICRETPKGGVACDCRPGFDLAQNQKDCTLTCNYGNGGCQHSCEDTDTGPTCGCHQKYAPHSDGRTCIETCAVNNGGCDRTCKDTATGVRCSCPVGFTLQPDGKTCKDINECLVNNGGCDHFCRNTVGSFECGCRKGYKLLTDERTCQDIDECSFERTCDHICINSPGSFQCLCHRGYILYGTTHCGDVDECSMSNGSCDQGCVNTKGSYECVCPPGRRLHWNRKDCVETGKCLSRA

Assays:
[1] = biological target: B2; test: overexpression; method not given
[2] = biological target: the molecule itself; test: overexpression; method not given
[3] = biological target: T1, SCUBE1.Myc (human SCUBE1 tagged with …); test: co-immunoprecipitation of detergent lysates, anti-Myc IP, anti-Flag M2 blot (FIG. 8b)
Method: HEK-293 cells were transfected with expression plasmids encoding Flag-tagged full-length SCUBE1, SCUBE1-D1, SCUBE1-D2 and TLR2 (control) proteins, and, two days after transfection, cells were collected and homogenized. Samples of supernatant (S10) were centrifuged at 100,000×g for 30 min to give soluble fractions (S100) and pellets (P100 membrane fraction). Pellets were resuspended in original volumes of homogenization buffer with 0.1 M Na₂CO₃ (pH 12), sonicated briefly, and then incubated on ice for 30 min. Samples were centrifuged again at 100,000×g for 30 min. to give washed fractions S100′ and pellets P100′. Each fraction was subjected to SDS-PAGE and immunoblot analysis using anti-Flag M2 antibody. […] Upon disruption by sonication, however, they are released from the membrane and can be detected in the soluble membrane fraction. […] Flag-SCUBE1 and SCUBE1.Myc were singly or co-transfected in 293T cells. As a control, SCUBE1.Myc was expressed together with Flag-tagged IL-1β receptor (Flag.IL-1R1). Immunoprecipitation (IP) and Western blot (WB) were performed using antisera as indicated. The bands indicate the presence of protein complexes that can be precipitated by one antibody and detected by another. […] The spacer and CUB sequences are not required. […] In each case, a protein complex that could be precipitated with anti-Myc antibody was detected with anti-Flag M2 antibody.

binding result [1] | binding result [3] | Binder | binding result [2]
binds | – | B1 | binds
– | – | B2 | binds
– | binds | B3 | –
